# Measured values from paper PMC3590443 (Nature structural & molecular biology, 2012).
# T1: Sema3AS-F with Nrp1_(1-4) (combination in the experiment with EDTA) (mouse, UniProt O08665 21-555; P97333 22-586)
# T1 sequence (looked up) 1: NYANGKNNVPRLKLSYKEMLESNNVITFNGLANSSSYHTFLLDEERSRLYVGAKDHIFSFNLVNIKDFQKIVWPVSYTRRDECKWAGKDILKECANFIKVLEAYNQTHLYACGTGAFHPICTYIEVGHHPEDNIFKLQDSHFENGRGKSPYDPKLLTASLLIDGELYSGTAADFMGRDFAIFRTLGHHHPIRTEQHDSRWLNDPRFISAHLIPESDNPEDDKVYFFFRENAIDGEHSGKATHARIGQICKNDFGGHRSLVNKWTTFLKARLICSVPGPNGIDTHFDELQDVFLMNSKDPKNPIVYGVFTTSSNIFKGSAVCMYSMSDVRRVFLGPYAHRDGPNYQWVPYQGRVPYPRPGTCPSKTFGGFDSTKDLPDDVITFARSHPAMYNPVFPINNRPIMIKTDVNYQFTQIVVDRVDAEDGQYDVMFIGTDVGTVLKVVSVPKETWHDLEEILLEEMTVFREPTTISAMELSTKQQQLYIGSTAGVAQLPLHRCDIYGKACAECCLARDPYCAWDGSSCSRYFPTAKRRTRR
# T1 sequence (looked up) 2: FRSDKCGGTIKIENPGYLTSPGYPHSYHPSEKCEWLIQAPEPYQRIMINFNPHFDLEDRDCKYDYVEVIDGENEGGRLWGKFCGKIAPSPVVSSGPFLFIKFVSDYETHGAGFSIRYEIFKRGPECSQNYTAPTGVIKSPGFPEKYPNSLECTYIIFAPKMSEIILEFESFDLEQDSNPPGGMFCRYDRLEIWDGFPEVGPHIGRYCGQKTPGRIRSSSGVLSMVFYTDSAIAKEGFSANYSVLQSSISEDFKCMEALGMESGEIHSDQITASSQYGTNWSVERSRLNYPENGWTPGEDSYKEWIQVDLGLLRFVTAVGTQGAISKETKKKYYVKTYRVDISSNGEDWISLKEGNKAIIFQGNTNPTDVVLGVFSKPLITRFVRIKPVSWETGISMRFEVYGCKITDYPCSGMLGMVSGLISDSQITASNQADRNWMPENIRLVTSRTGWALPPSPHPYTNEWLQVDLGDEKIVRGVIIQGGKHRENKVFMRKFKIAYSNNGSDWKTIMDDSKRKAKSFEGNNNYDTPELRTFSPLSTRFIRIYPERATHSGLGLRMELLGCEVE
# T2: Nrp1_(1-4) P73A H74S (mouse, UniProt P97333 22-586, P73A | H74S)
# T2 sequence (looked up): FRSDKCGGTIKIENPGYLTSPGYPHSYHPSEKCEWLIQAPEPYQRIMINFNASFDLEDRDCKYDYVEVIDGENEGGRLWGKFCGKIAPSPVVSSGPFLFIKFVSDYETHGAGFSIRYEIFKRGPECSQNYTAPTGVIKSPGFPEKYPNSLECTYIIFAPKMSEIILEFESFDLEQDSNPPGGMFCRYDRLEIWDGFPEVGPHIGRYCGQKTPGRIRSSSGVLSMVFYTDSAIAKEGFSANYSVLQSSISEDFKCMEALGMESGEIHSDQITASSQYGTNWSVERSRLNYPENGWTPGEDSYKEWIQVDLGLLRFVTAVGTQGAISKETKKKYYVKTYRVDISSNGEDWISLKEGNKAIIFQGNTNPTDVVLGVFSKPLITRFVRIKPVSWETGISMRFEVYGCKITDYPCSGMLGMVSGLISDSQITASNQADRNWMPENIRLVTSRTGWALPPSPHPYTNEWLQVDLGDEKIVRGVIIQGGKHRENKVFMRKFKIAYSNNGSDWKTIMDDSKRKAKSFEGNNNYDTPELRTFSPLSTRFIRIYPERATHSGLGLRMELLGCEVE
# T3: PlxnA2_(1-4) F275N (mouse, UniProt P70207 35-703, F275N)
# T3 sequence (looked up): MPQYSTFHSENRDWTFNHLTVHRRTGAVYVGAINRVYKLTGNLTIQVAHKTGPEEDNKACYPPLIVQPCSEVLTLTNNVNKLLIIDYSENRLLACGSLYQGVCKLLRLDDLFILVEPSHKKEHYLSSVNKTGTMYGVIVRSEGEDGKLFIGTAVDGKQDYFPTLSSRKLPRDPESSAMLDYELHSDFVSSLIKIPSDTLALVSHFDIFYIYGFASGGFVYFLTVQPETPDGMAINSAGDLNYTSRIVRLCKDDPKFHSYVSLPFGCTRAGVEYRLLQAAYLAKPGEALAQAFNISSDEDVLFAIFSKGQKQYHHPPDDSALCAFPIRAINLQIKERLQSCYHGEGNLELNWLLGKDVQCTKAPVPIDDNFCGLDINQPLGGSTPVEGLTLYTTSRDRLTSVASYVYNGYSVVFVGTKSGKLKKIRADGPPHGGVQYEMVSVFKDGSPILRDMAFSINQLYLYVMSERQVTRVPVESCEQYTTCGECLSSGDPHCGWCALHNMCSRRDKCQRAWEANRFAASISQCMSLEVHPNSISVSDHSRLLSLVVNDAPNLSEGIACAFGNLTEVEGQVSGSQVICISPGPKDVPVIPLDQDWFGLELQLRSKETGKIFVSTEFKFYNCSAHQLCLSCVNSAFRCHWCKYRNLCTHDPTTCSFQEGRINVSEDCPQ
# B1: Nrp1_(1-4) (mouse Nrp1 residues 22-586) (domain or fragment, UniProt P97333 22-586, looked up)
# chain: FRSDKCGGTIKIENPGYLTSPGYPHSYHPSEKCEWLIQAPEPYQRIMINFNPHFDLEDRDCKYDYVEVIDGENEGGRLWGKFCGKIAPSPVVSSGPFLFIKFVSDYETHGAGFSIRYEIFKRGPECSQNYTAPTGVIKSPGFPEKYPNSLECTYIIFAPKMSEIILEFESFDLEQDSNPPGGMFCRYDRLEIWDGFPEVGPHIGRYCGQKTPGRIRSSSGVLSMVFYTDSAIAKEGFSANYSVLQSSISEDFKCMEALGMESGEIHSDQITASSQYGTNWSVERSRLNYPENGWTPGEDSYKEWIQVDLGLLRFVTAVGTQGAISKETKKKYYVKTYRVDISSNGEDWISLKEGNKAIIFQGNTNPTDVVLGVFSKPLITRFVRIKPVSWETGISMRFEVYGCKITDYPCSGMLGMVSGLISDSQITASNQADRNWMPENIRLVTSRTGWALPPSPHPYTNEWLQVDLGDEKIVRGVIIQGGKHRENKVFMRKFKIAYSNNGSDWKTIMDDSKRKAKSFEGNNNYDTPELRTFSPLSTRFIRIYPERATHSGLGLRMELLGCEVE
# Assays:
# Assay in all cases: SPR
# [1] = target: T1, Sema3AS-F with Nrp1_(1-4) (combination …)
# Nrp1_(1-4) P73A H74S = target: T2, Nrp1_(1-4) P73A H74S
# [2] = target: B1
# PlxnA2_(1-4) F275N = target: T3, PlxnA2_(1-4) F275N
binder,measurement,setting,value
"PlxnA2_(1-4) (mouse PlxnA2 residues 35-703) (domain or fragment, UniProt P70207 35-703, looked up) MPQYSTFHSENRDWTFNHLTVHRRTGAVYVGAINRVYKLTGNLTIQVAHKTGPEEDNKACYPPLIVQPCSEVLTLTNNVNKLLIIDYSENRLLACGSLYQGVCKLLRLDDLFILVEPSHKKEHYLSSVNKTGTMYGVIVRSEGEDGKLFIGTAVDGKQDYFPTLSSRKLPRDPESSAMLDYELHSDFVSSLIKIPSDTLALVSHFDIFYIYGFASGGFVYFLTVQPETPDGMAINSAGDLFYTSRIVRLCKDDPKFHSYVSLPFGCTRAGVEYRLLQAAYLAKPGEALAQAFNISSDEDVLFAIFSKGQKQYHHPPDDSALCAFPIRAINLQIKERLQSCYHGEGNLELNWLLGKDVQCTKAPVPIDDNFCGLDINQPLGGSTPVEGLTLYTTSRDRLTSVASYVYNGYSVVFVGTKSGKLKKIRADGPPHGGVQYEMVSVFKDGSPILRDMAFSINQLYLYVMSERQVTRVPVESCEQYTTCGECLSSGDPHCGWCALHNMCSRRDKCQRAWEANRFAASISQCMSLEVHPNSISVSDHSRLLSLVVNDAPNLSEGIACAFGNLTEVEGQVSGSQVICISPGPKDVPVIPLDQDWFGLELQLRSKETGKIFVSTEFKFYNCSAHQLCLSCVNSAFRCHWCKYRNLCTHDPTTCSFQEGRINVSEDCPQ",binding result,[1],binds
"Sema3AS-P (mouse Sema3A residues 21-568, furin site mutated R551A and R555A) (domain or fragment, UniProt O08665 21-568, looked up) NYANGKNNVPRLKLSYKEMLESNNVITFNGLANSSSYHTFLLDEERSRLYVGAKDHIFSFNLVNIKDFQKIVWPVSYTRRDECKWAGKDILKECANFIKVLEAYNQTHLYACGTGAFHPICTYIEVGHHPEDNIFKLQDSHFENGRGKSPYDPKLLTASLLIDGELYSGTAADFMGRDFAIFRTLGHHHPIRTEQHDSRWLNDPRFISAHLIPESDNPEDDKVYFFFRENAIDGEHSGKATHARIGQICKNDFGGHRSLVNKWTTFLKARLICSVPGPNGIDTHFDELQDVFLMNSKDPKNPIVYGVFTTSSNIFKGSAVCMYSMSDVRRVFLGPYAHRDGPNYQWVPYQGRVPYPRPGTCPSKTFGGFDSTKDLPDDVITFARSHPAMYNPVFPINNRPIMIKTDVNYQFTQIVVDRVDAEDGQYDVMFIGTDVGTVLKVVSVPKETWHDLEEILLEEMTVFREPTTISAMELSTKQQQLYIGSTAGVAQLPLHRCDIYGKACAECCLARDPYCAWDGSSCSRYFPTAKARTRAQDIRNGDPLTHCS",binding result,Nrp1_(1-4) P73A H74S,binds
"Sema3AS-P L353N P355S (domain or fragment, mouse, UniProt O08665 21-568, looked up) NYANGKNNVPRLKLSYKEMLESNNVITFNGLANSSSYHTFLLDEERSRLYVGAKDHIFSFNLVNIKDFQKIVWPVSYTRRDECKWAGKDILKECANFIKVLEAYNQTHLYACGTGAFHPICTYIEVGHHPEDNIFKLQDSHFENGRGKSPYDPKLLTASLLIDGELYSGTAADFMGRDFAIFRTLGHHHPIRTEQHDSRWLNDPRFISAHLIPESDNPEDDKVYFFFRENAIDGEHSGKATHARIGQICKNDFGGHRSLVNKWTTFLKARLICSVPGPNGIDTHFDELQDVFLMNSKDPKNPIVYGVFTTSSNIFKGSAVCMYSMSDVRRVFNGSYAHRDGPNYQWVPYQGRVPYPRPGTCPSKTFGGFDSTKDLPDDVITFARSHPAMYNPVFPINNRPIMIKTDVNYQFTQIVVDRVDAEDGQYDVMFIGTDVGTVLKVVSVPKETWHDLEEILLEEMTVFREPTTISAMELSTKQQQLYIGSTAGVAQLPLHRCDIYGKACAECCLARDPYCAWDGSSCSRYFPTAKARTRAQDIRNGDPLTHCS",binding result,[2],binds
B1,binding result,PlxnA2_(1-4) F275N,binds
